Where “and” joins values, the source holds several entries; their conditions need not be identical. Equal values may be shown once. Read-outs that look alike come from different tables or passages of the source.
Key:
[1] = target: GST fused to the C-terminal residues 200-294 of HMPV P (strain CAN97-83) (human metapneumovirus strain CAN97-83)
[2] = target: HMPV nucleoprotein N (strain NL/00/1), assembled and RNA-bound (N-RNA) (human metapneumovirus strain NL/00/1) (UniProt Q6WBA1); assay: cryo-EM structure; single-particle cryo-EM of recombinant N-RNA (1.0 mg/ml) in 25 mM Tris-HCl pH 8.0, 250 mM NaCl; 2D classification and 3D reconstruction of 10-mer, 11-mer and spiral particles, local refinement of an N-RNA dimer
[3] = target: HMPV nucleoprotein N (strain NL/00/1), assembled and RNA-bound (N-RNA) (human metapneumovirus strain NL/00/1) (UniProt Q6WBA1); assay: as above; remark: listed apart in the source

Row | Substance | HMPV polymerase activity, minigenome assay (Firefly luciferase) in BSRT7/5 cells, compared to wild-type; N and full-length P of strain NL99-1 from pCite plasmids (% of wild-type) [1] | stoichiometry N [2] | stoichiometry N [3] [protomers]
1 | HMPV N (strain CAN97-83) with a C-terminal 6xHis tag, L111E (natural protein) | 10 |  | 
2 | HMPV N (strain NL99-1, plasmid pN) L111A (natural protein) | < 50 |  | 
3 | HMPV N (strain NL99-1, plasmid pN) triple mutant with alanines in positions 100, 103 and 111 (natural protein) | 30 |  | 
4 | HMPV nucleoprotein N (strain NL/00/1), assembled and RNA-bound (N-RNA) (from UniProt Q6WBA1 1-394) (natural protein) |  | 10 protomers and 11 protomers and 12 protomers | > 12

Source: article PMC10665349
